Where a chain is given by its changes, count along the chain named. Values belong to the binder of their own block, whether it stands above or below them.
Tests used:
hPD-L1-his = target: T1, hPD-L1-his (human, UniProt Q9NZQ7 19-238); assay: BLI (ForteBIO), hPD-L1-his on anti-Penta-HIS sensor
T1 construct: extracellular domain; also called 携带his标签的人PD-L1胞外区重组蛋白; not shown: his tag

重组人CD28蛋白 = target: T2, 重组人CD28蛋白 (human, UniProt P10747 19-152); assay: ELISA, protein coated at 1μg/ml
T2 construct: The words 携带hFc标签的 stand before the first protein of the list; also called Acrobiosystem Cat.CD8-H525a

重组人CD276蛋白 = target: T3, 重组人CD276蛋白 (human, UniProt Q5ZPR3-2 29-245); assay: ELISA, protein coated at 1μg/ml
T3 construct: The words 携带hFc标签的 stand before the first protein of the list; also called B7-H3; Acrobiosystem Cat.B73-H5253
T3 sequence (looked up): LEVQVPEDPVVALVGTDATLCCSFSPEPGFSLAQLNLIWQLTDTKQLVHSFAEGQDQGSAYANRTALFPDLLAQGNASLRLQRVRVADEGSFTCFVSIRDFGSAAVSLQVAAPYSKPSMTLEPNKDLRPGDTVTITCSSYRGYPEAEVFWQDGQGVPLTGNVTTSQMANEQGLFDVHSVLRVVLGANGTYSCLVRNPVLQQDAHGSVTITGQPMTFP

重组人ICOS蛋白 = target: T4, 重组人ICOS蛋白 (human, UniProt Q9Y6W8 21-140); assay: ELISA, protein coated at 1μg/ml
T4 construct: The words 携带hFc标签的 stand before the first protein of the list; also called Acrobiosystem Cat.ICS-H5250
T4 sequence (looked up): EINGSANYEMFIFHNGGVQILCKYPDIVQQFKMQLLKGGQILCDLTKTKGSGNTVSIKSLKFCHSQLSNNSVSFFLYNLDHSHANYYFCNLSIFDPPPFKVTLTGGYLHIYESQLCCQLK

重组人PD-1蛋白(自产) = target: T5, 重组人PD-1蛋白(自产) (human, UniProt Q15116 25-167); assay: ELISA, protein coated at 1μg/ml
T5 construct: The words 携带hFc标签的 stand before the first protein of the list

重组人PD-L2蛋白 = target: T6, 重组人PD-L2蛋白 (human, UniProt Q9BQ51 20-219); assay: ELISA, protein coated at 1μg/ml
T6 construct: The words 携带hFc标签的 stand before the first protein of the list; also called Acrobiosystem Cat.PD2-H5251
T6 sequence (looked up): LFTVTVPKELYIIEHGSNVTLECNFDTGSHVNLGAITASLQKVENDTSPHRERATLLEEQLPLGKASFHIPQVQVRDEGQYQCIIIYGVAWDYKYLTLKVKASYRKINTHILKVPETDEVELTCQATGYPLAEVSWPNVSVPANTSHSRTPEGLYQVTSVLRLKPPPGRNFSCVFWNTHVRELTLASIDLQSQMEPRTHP

重组人CTLA-4蛋白 = target: T7, 重组人CTLA-4蛋白 (human, UniProt P16410 37-162); assay: ELISA, protein coated at 1μg/ml
T7 construct: The words 携带hFc标签的 stand before the first protein of the list; also called Acrobiosystem Cat.CT4-H5255

重组人ICOSLG蛋白 = target: T8, 重组人ICOSLG蛋白 (human, UniProt O75144 19-258); assay: ELISA, protein coated at 1μg/ml
T8 construct: The words 携带hFc标签的 stand before the first protein of the list; also called Acrobiosystem Cat.B72-H5254
T8 sequence (looked up): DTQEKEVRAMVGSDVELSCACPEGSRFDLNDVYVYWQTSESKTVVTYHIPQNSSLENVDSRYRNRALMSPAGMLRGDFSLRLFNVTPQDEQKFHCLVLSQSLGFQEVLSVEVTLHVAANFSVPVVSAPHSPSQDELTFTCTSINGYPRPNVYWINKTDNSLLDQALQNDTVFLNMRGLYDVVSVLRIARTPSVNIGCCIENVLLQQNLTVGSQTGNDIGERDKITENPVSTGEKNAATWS

重组人CD86蛋白 = target: T9, 重组人CD86蛋白 (human, UniProt P42081 26-247); assay: ELISA, protein coated at 1μg/ml
T9 construct: The words 携带hFc标签的 stand before the first protein of the list; also called Acrobiosystem Cat.CD6-H5257
T9 sequence (looked up): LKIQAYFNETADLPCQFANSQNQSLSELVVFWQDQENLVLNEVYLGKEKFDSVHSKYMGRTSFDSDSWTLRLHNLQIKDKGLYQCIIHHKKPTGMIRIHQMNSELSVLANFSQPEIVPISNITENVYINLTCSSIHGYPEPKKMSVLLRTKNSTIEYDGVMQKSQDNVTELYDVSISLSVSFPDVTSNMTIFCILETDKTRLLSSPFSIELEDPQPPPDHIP

小鼠PD-L1 (on CHO cells) = target: T10, 小鼠PD-L1 (on CHO cells) (mouse, UniProt Q9EP73 19-290); assay: flow cytometry on CHO-mPD-L1 cells
T10 construct: whole, on cells; also called CHO-mPD-L1稳定细胞株; 稳定表达全长小鼠PD-L1的CHO

人PD-L1 (on cells) = target: T11, 人PD-L1 (on cells) (human, UniProt Q9NZQ7 19-290); assay: flow cytometry on IFNγ-stimulated A375 cells
T11 construct: whole, on cells; One molecule for human PD-L1 on CHO-hPD-L1, on IFNγ-stimulated A375 and on CHO-hPD-L1-OKT3 cells; the cell is named under assay; also called CHO-hPD-L1稳定细胞株; 稳定表达人PD-L1的CHO
T11 sequence (Q9NZQ7 19-290): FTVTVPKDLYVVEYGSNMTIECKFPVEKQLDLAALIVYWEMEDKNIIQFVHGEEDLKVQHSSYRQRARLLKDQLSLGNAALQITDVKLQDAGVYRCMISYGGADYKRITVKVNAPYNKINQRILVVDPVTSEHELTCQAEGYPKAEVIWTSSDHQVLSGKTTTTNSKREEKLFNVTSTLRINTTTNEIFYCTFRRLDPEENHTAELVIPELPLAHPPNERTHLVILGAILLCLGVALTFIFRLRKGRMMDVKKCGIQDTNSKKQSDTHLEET

T7 sequence (P16410 37-162): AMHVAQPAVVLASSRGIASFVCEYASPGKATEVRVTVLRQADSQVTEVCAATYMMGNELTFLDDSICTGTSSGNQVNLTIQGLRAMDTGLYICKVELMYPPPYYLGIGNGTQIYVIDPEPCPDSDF
T10 sequence (Q9EP73 19-290): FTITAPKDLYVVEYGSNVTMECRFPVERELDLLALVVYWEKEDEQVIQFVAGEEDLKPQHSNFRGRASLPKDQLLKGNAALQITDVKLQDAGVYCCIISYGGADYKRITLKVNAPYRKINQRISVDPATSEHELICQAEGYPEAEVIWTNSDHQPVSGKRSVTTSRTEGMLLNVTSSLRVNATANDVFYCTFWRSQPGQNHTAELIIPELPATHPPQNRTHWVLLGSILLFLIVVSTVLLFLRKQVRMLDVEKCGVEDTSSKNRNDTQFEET
T1 sequence (Q9NZQ7 19-238): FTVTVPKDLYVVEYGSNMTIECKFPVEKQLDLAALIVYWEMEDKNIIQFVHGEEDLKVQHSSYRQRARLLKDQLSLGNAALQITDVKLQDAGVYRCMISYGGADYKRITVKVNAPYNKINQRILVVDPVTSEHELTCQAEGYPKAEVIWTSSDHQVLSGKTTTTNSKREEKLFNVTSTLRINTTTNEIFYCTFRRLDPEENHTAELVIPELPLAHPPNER
T5 sequence (Q15116 25-167): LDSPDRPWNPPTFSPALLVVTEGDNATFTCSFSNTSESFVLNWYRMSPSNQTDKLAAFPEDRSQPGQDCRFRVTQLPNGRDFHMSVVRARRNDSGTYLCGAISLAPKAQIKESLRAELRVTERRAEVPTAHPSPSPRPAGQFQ

B1: F016-870-hIgG1 (antibody, V domains shown)
VH: EVQLQESGPSLVKPSQTLSLTCSVTGDSITSGYWNWIRKFPGNKLEYMGYISYTGSTYQNPSLKSRISFTRDTSKNQYYLQLSSVTTEDTATYYCARSRAWIRTYFDYWGQGTTLTVSS
VL: EIVLTQSPALMAASPGEKVTITCSVSSSISSSNLHWYQQKSETSPKPWIYGTSNLASGVPVRFSGSGSGTSYSLTISSMEAEDAATYYCQQWSSYPLTFGAGTKLELKR
Kd (hPD-L1-his): < 0.001 nM

B2: 176L6H5 (antibody, V domains shown)
VH: EVQLQESGPGLVKPSETLSLTCAVYGDSITSGYWNWIRKPPGKGLEYMGYISYTGSTYQNPSLKSRITFSRDTSKNQYYLKLSSVTAADTATYYCARSRAWIRTYFDYWGQGTLVTVSS
VL: EIVLTQSPDFQSVTPKEKVTITCSVSSSISSSNLHWYQQKPDQSPKLLIYGTSNLASGVPSRFSGSGSGTDFTLTINSLEAEDAATYYCQQWSSYPLTFGQGTKLEIKR
notes: Whole humanized mAb expressed in 293 cells; detected with anti-human IgG; also called 抗人PD-L1人源化抗体176L6H5
binding result (重组人CD28蛋白): no binding (tested: 10μg/ml)
binding result (重组人CD276蛋白): no binding (tested: 10μg/ml)
binding result (重组人ICOS蛋白): no binding (tested: 10μg/ml)
binding result (重组人PD-1蛋白(自产)): no binding (tested: 10μg/ml)
binding result (重组人PD-L2蛋白): no binding (tested: 10μg/ml)
binding result (重组人CTLA-4蛋白): no binding (tested: 10μg/ml)
binding result (重组人ICOSLG蛋白): no binding (tested: 10μg/ml)
binding result (重组人CD86蛋白): no binding (tested: 10μg/ml)
binding result (小鼠PD-L1 (on CHO cells)): no binding (tested: 20μg/ml)
Kd (hPD-L1-his): 0.0302 nM
EC50 (人PD-L1 (on cells)): ~0.2 nM

B3: 176L4H2 (antibody, V domains shown)
VH: B2 VH with E1Q, G44K, M48I, F69M, T92V
VL: DIQMTQSPSSLSASVGDRVTITCSVSSSISSSNLHWYQQKPGKAPKPWIYGTSNLASGVPSRFSGSGSGTDYTLTISSLQPEDFATYYCQQWSSYPLTFGQGTKLEIKR
notes: Whole humanized mAb expressed in 293 cells; detected with anti-human IgG; also called 抗人PD-L1人源化抗体176L4H2
binding result (重组人CD28蛋白): no binding (tested: 10μg/ml)
binding result (重组人CD276蛋白): no binding (tested: 10μg/ml)
binding result (重组人ICOS蛋白): no binding (tested: 10μg/ml)
binding result (重组人PD-1蛋白(自产)): no binding (tested: 10μg/ml)
binding result (重组人PD-L2蛋白): no binding (tested: 10μg/ml)
binding result (重组人CTLA-4蛋白): no binding (tested: 10μg/ml)
binding result (重组人ICOSLG蛋白): no binding (tested: 10μg/ml)
binding result (重组人CD86蛋白): no binding (tested: 10μg/ml)
binding result (小鼠PD-L1 (on CHO cells)): no binding (tested: 20μg/ml)
Kd (hPD-L1-his): 0.0848 nM
EC50 (人PD-L1 (on cells)): ~0.2 nM

Further lines, results first:

binding result (重组人CD28蛋白): no binding (tested: 10μg/ml)
binding result (重组人CD276蛋白): no binding (tested: 10μg/ml)
binding result (重组人ICOS蛋白): no binding (tested: 10μg/ml)
binding result (重组人PD-1蛋白(自产)): no binding (tested: 10μg/ml)
binding result (重组人PD-L2蛋白): no binding (tested: 10μg/ml)
binding result (重组人CTLA-4蛋白): no binding (tested: 10μg/ml)
binding result (重组人ICOSLG蛋白): no binding (tested: 10μg/ml)
binding result (重组人CD86蛋白): no binding (tested: 10μg/ml)
binding result (小鼠PD-L1 (on CHO cells)): no binding (tested: 20μg/ml)
Kd (hPD-L1-his): 0.0881 nM
EC50 (人PD-L1 (on cells)): ~0.2 nM
B4: 176L4H4 (antibody, V domains shown)
VH: B2 VH with E1Q, A23S, G44K, T92V
VL: B3 VL
notes: Whole humanized mAb expressed in 293 cells; detected with anti-human IgG; also called 抗人PD-L1人源化抗体176L4H4

binding result (重组人CD28蛋白): no binding (tested: 10μg/ml)
binding result (重组人CD276蛋白): no binding (tested: 10μg/ml)
binding result (重组人ICOS蛋白): no binding (tested: 10μg/ml)
binding result (重组人PD-1蛋白(自产)): no binding (tested: 10μg/ml)
binding result (重组人PD-L2蛋白): no binding (tested: 10μg/ml)
binding result (重组人CTLA-4蛋白): no binding (tested: 10μg/ml)
binding result (重组人ICOSLG蛋白): no binding (tested: 10μg/ml)
binding result (重组人CD86蛋白): no binding (tested: 10μg/ml)
binding result (小鼠PD-L1 (on CHO cells)): no binding (tested: 20μg/ml)
Kd (hPD-L1-his): 0.0084 nM
EC50 (人PD-L1 (on cells)): ~0.2 nM
B5: 176L4H1 (antibody, V domains shown)
VH: B2 VH with E1Q, M48I, F69M, T92V
VL: B3 VL
notes: Whole humanized mAb expressed in 293 cells; detected with anti-human IgG; also called 抗人PD-L1人源化抗体176L4H1

binding result (重组人CD28蛋白): no binding (tested: 10μg/ml)
binding result (重组人CD276蛋白): no binding (tested: 10μg/ml)
binding result (重组人ICOS蛋白): no binding (tested: 10μg/ml)
binding result (重组人PD-1蛋白(自产)): no binding (tested: 10μg/ml)
binding result (重组人PD-L2蛋白): no binding (tested: 10μg/ml)
binding result (重组人CTLA-4蛋白): no binding (tested: 10μg/ml)
binding result (重组人ICOSLG蛋白): no binding (tested: 10μg/ml)
binding result (重组人CD86蛋白): no binding (tested: 10μg/ml)
binding result (小鼠PD-L1 (on CHO cells)): no binding (tested: 20μg/ml)
Kd (hPD-L1-his): 0.109 nM
EC50 (人PD-L1 (on cells)): ~0.2 nM
B6: 176L5H2 (antibody, V domains shown)
VH: B2 VH with E1Q, G44K, M48I, F69M, T92V
VL: B3 VL with D1E, Q3V, M4L
notes: Whole humanized mAb expressed in 293 cells; detected with anti-human IgG; also called 抗人PD-L1人源化抗体176L5H2

binding result (重组人CD28蛋白): no binding (tested: 10μg/ml)
binding result (重组人CD276蛋白): no binding (tested: 10μg/ml)
binding result (重组人ICOS蛋白): no binding (tested: 10μg/ml)
binding result (重组人PD-1蛋白(自产)): no binding (tested: 10μg/ml)
binding result (重组人PD-L2蛋白): no binding (tested: 10μg/ml)
binding result (重组人CTLA-4蛋白): no binding (tested: 10μg/ml)
binding result (重组人ICOSLG蛋白): no binding (tested: 10μg/ml)
binding result (重组人CD86蛋白): no binding (tested: 10μg/ml)
binding result (小鼠PD-L1 (on CHO cells)): no binding (tested: 20μg/ml)
Kd (hPD-L1-his): 0.08 nM
EC50 (人PD-L1 (on cells)): ~0.2 nM
B7: 176L4H3 (antibody, V domains shown)
VH: B2 VH with E1Q, G44K, M48I, T92V
VL: B3 VL
notes: Whole humanized mAb expressed in 293 cells; detected with anti-human IgG; also called 抗人PD-L1人源化抗体176L4H3
